Source: patent US20220298237A1 (KEIO UNIVERSITY, published 2022)
“And” between values parts separate entries of the source, which are not always exact repeats. Identical values can stand only once.

Columns and labels:
[1] = target: T1, mouse aquaporin 3 (AQP3) on cells (mouse, UniProt Q8R2N1 1-292); experiment: fluorescence binding assay on PAM212 cells, 10 µg/mL (FIG. 5B)
T1 construct: whole, on cells; Water channel membrane protein; also called mouse AQP3; AQP3 on PAM212 cells
T1 sequence (looked up): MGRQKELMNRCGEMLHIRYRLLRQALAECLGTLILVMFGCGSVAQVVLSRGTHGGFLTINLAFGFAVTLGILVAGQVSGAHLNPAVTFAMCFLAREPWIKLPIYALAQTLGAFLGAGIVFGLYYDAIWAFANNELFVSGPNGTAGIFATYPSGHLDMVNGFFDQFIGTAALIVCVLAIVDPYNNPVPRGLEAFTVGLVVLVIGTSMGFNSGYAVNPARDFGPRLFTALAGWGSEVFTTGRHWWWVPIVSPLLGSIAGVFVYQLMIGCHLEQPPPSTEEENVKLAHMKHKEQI
Procedure: (§1) PAM212 and macrophage cells were reacted with each anti AQP3 antibody (0.1, 1, or 10 μg/mL) at 4° C. for 1 hour. After washing the cells, a fluorescent-labeled secondary antibody was added and the reaction was allowed to occur additionally for 1 hour (4° C.). By measuring the fluorescence intensity, the binding property of each anti AQP3 antibody to cells was obtained.
The assay was also performed using PAM212 cells and antibodies A, B, C, D, E, F, G, H, and J at a concentration of 10 μg/mL. Binding of antibodies C, D, E, G, and J to PAM212 cells was statistically significant.

[2] = target: T2, oligopeptide ATYPSGHLDM (SEQ ID NO: 1) (human and mouse); experiment: ELISA on peptide SEQ ID NO:1, IgG, 50% binding response (FIG. 16A)
T2 construct: Synthetic peptide; positions 148 to 157 of the human AQP3 polypeptide, identical in mouse; also called peptide used for immunization; oligopeptide 5
T2 peptide: ATYPSGHLDM

[3] = target: T3, mouse AQP3 in lysate of HEK293T cells overexpressing mouse AQP3 and a myc-biotinylated tag (mouse, UniProt Q8R2N1 1-292); experiment: ELISA on lysate of HEK293T cells overexpressing mouse AQP3 (FIG. 3)
T3 construct: Cell lysate used in ELISA; also called AQP3 containing cell lysate; not shown: myc-biotinylated tag
T3 sequence (looked up): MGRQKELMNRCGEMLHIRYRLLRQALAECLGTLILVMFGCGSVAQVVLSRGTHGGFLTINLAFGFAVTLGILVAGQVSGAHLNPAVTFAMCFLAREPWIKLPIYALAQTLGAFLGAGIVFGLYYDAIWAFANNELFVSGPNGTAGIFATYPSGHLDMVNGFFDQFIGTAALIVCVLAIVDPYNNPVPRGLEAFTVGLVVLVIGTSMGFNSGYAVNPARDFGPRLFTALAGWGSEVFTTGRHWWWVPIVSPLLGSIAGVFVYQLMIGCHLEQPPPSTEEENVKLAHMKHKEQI
Excerpt: Cell lysate from HEK293T cells overexpressing mouse AQP3 and a myc-biotinylated tag was used in an ELISA assay to measure the binding of antibodies A, B, C, D, E, F, G, H, J, and K to AQP3. Cell lysate from HEK293T cells overexpressing the myc-biotinylated tag but not AQP3 was used as control. […] C. Antibody binding to AQP3 expressing cells

[4] = target: T4, oligopeptide AGIFATYPSGHLDM (SEQ ID NO: 106); experiment: ELISA on coated peptide
T4 construct: Synthetic peptide, part of Loop C of AQP3
T4 peptide: AGIFATYPSGHLDM
Procedure: (§2) To determine the important amino acid residues of an epitope in Loop C involved in binding to specific AQP3 antibody clones, peptides of varying lengths were produced. The sequences of these peptides are shown in column 2 of Table 4.
(§3) The various peptides and AQP3 antibody clones were subjected to ELISA binding analyses. […] The microtiter wells (Costar 2690) were coated with 50 μL of each peptide at 4° C. overnight. The wells were washed 3 times with PBS and blocked with 100 μL of 1% BSA/PBS at 37° C. for 1 hour. Each antibody was adjusted to 1 μg/mL in 1% SBA/PBS as above then serially diluted 1:5 in 1% BSA/PBS. The blocker was discarded and the wells were incubated with 50 μL of antibodies at 37° C. for 1.5 hours. The wells were washed 3 times with PBS and mouse antibodies were detected with 50 μL of goat anti-mouse IgG (H+L) HRP conjugate (ThermoFisher 31438) (1:5,000 in 1% BSA/PBS) and rabbit antibodies were detected with 50 μL of goat anti-rabbit IgG (H+L) HRP conjugate (ThermoFisher 31462) (1:5,000 in 1% BSA/PBS) at 37° C. for 1 hour. The wells were washed 3 times with PBS and developed with 50 μL of HRP substrate at RT for 5 min then stopped with 50 μL of 2N sulfuric acid and binding was measured with a plate reader.

[5] = target: T5, oligopeptide ATYPSG (SEQ ID NO: 104); experiment: ELISA on coated peptide
T5 construct: Synthetic peptide, part of Loop C of AQP3
T5 peptide: ATYPSG
Procedure: as §2, §3

[6] = target: T6, oligopeptide YPSGHLDM (SEQ ID NO: 97); experiment: ELISA on coated peptide
T6 construct: Synthetic peptide, part of Loop C of AQP3; first diluted in DMSO
T6 peptide: YPSGHLDM
Procedure: as §2, §3

[7] = target: T7, oligopeptide IFATYPSGHLDM (SEQ ID NO: 108); experiment: ELISA on coated peptide
T7 construct: Synthetic peptide, part of Loop C of AQP3
T7 peptide: IFATYPSGHLDM
Procedure: as §2, §3

[8] = target: T8, oligopeptide ATYPSGH (SEQ ID NO: 103); experiment: ELISA on coated peptide
T8 construct: Synthetic peptide, part of Loop C of AQP3
T8 peptide: ATYPSGH
Procedure: as §2, §3

[9] = target: T2, oligopeptide ATYPSGHLDM (SEQ ID NO: 1); experiment: ELISA on coated peptide
Procedure: as §2, §3

[10] = target: T9, oligopeptide PSGHLDM (SEQ ID NO: 98); experiment: ELISA on coated peptide
T9 construct: Synthetic peptide, part of Loop C of AQP3
T9 peptide: PSGHLDM
Procedure: as §2, §3

[11] = target: T10, oligopeptide GIFATYPSGHLDM (SEQ ID NO: 107); experiment: ELISA on coated peptide
T10 construct: Synthetic peptide, part of Loop C of AQP3
T10 peptide: GIFATYPSGHLDM
Procedure: as §2, §3

[12] = target: T11, oligopeptide ATYPSGHL (SEQ ID NO: 102); experiment: ELISA on coated peptide
T11 construct: Synthetic peptide, part of Loop C of AQP3
T11 peptide: ATYPSGHL
Procedure: as §2, §3

[13] = target: T12, oligopeptide GHLDM (SEQ ID NO: 100); experiment: ELISA on coated peptide
T12 construct: Synthetic peptide, part of Loop C of AQP3
T12 peptide: GHLDM
Procedure: as §2, §3

[14] = target: T13, oligopeptide SGHLDM (SEQ ID NO: 99); experiment: ELISA on coated peptide
T13 construct: Synthetic peptide, part of Loop C of AQP3
T13 peptide: SGHLDM
Procedure: as §2, §3

[15] = target: T14, oligopeptide FATYPSGHLDM (SEQ ID NO: 109); experiment: ELISA on coated peptide
T14 construct: Synthetic peptide, part of Loop C of AQP3
T14 peptide: FATYPSGHLDM
Procedure: as §2, §3

[16] = target: T15, oligopeptide TYPSGHLDM (SEQ ID NO: 96); experiment: ELISA on coated peptide
T15 construct: Synthetic peptide, part of Loop C of AQP3
T15 peptide: TYPSGHLDM
Procedure: as §2, §3

[17] = target: T16, oligopeptide TAGIFATYPSGHLDM (SEQ ID NO: 105); experiment: ELISA on coated peptide
T16 construct: Synthetic peptide, part of Loop C of AQP3
T16 peptide: TAGIFATYPSGHLDM
Procedure: as §2, §3

[18] = target: T17, oligopeptide ATYPSGHLD (SEQ ID NO: 101); experiment: ELISA on coated peptide
T17 construct: Synthetic peptide, part of Loop C of AQP3
T17 peptide: ATYPSGHLD
Procedure: as §2, §3

[19] = target: T18, oligopeptide SGPNGTAGIFATYPS (SEQ ID NO: 94); experiment: ELISA on coated peptide
T18 construct: Synthetic peptide, part of Loop C of AQP3
T18 peptide: SGPNGTAGIFATYPS
Procedure: as §2, §3

[20] = target: T19, human aquaporin 3 (AQP3) on cells (human, UniProt Q92482 1-292); experiment: fluorescence binding assay on HaCaT cells, 10 µg/mL (FIG. 5C)
T19 construct: whole, on cells; Water channel membrane protein; also called human AQP3; AQP3 on HaCaT cells
T19 sequence (looked up): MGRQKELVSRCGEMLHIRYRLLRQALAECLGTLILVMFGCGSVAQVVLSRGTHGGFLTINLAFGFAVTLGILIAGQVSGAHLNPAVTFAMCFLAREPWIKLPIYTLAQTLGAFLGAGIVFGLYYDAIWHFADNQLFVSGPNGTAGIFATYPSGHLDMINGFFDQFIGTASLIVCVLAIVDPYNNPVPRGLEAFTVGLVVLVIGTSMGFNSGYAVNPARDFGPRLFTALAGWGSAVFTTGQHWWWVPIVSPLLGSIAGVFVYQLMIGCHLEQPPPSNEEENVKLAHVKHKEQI

[21] = target: T20, oligopeptide SRGTHGGFL (SEQ ID NO: 2); experiment: ELISA on peptide SEQ ID NO:2 (FIG. 16B)
T20 construct: Synthetic peptide of AQP3 Loop A; also called Loop A peptide; control peptide
T20 peptide: SRGTHGGFL

[22] = target: T19, human aquaporin 3 (AQP3) on cells; experiment: fluorescence binding assay on HaCaT cells, 10 µg/mL
Procedure: as §1, with “HaCaT” for “PAM212 and macrophage”, “at concentrations of none, 1 ng/mL, 10 ng/mL, 100 ng/mL, 1 μg/mL,” for “(0.1, 1,”, “μg/mL” for “μg/mL)”, “(at 4°” for “(4°”

[23] = target: T1, mouse aquaporin 3 (AQP3) on cells; experiment: fluorescence binding assay on PAM212 cells, 10 µg/mL
Procedure: as §1, with “PAM212” for “PAM212 and macrophage”, “at concentrations of none, 1 ng/mL, 10 ng/mL, 100 ng/mL, 1 μg/mL,” for “(0.1, 1,”, “μg/mL” for “μg/mL)”, “(at 4°” for “(4°”

[24] = target: T2, oligopeptide ATYPSGHLDM (SEQ ID NO: 1); experiment: ELISA on the immunogen peptide (FIG. 2)

B1: Antibody C (antibody, mouse IgG2a, kappa, V domains shown)
VH: QVQLKQSGAELARPGASVKLSCKASGYNFKSYGISWVKQRTGQGLEWIGEIYPGSGNTYYNEKLKGKATLTADKSSSTAYMELRSLTSEDSAVYFCARTYGYDSFPWFAYWGQGTLVTVSS
VL: DIVMTQAAPSVPVTPGESVSISCRSSKSLLHSNGNTYLYWFLQRPGQSPQLLIYRVSNLASGVPDRFSGSGSGTAFTLRISRVEAEDEGVYYCMQHLEYPFTFGAGTKLEIKR
notes: also called anti AQP3 antibody C
binding result [1]: binds | EC50 [2]: ~0.1 µg/mL | binding result [3]: binds | binding signal (plate reader) [4]: 2.97 | binding signal (plate reader) [5]: 0.044 | binding signal (plate reader) [6]: 1.58 | binding signal (plate reader) [7]: 2.8 | binding signal (plate reader) [8]: 0.047 | binding signal (plate reader) [9]: 2.21 | binding signal (plate reader) [10]: 0.271 | binding signal (plate reader) [11]: 2.92 | binding signal (plate reader) [12]: 1.69 | binding signal (plate reader) [13]: 0.043 | binding signal (plate reader) [14]: 0.048 | binding signal (plate reader) [15]: 2.8 | binding signal (plate reader) [16]: 1.79 | binding signal (plate reader) [17]: 2.81 | binding signal (plate reader) [18]: 2.52 | binding signal (plate reader) [19]: 0.045 | binding result [20]: binds

B2: SC-F8 (IgG) (antibody, V domains shown)
VH: QTVKESGGRLVTPGGSLTLTCTVSRFSLSNYAMTWVRQAPGKGLEWIGIINNDGISSTWYASWVKGRFTISKTSTTMDLKMTSLTTEDTATYFCARGGTSGYDIWGPGTLVTVSL
VL: AQVLTQTPSPVSAAVGGTVTINCQSSPSVYKNYLSWYQQKPGQPPKLLIYGASTLASGVPSRFKGSGSGTQFTLTISDVQCDDAATYYCAGGYRGSSDIFAFGGGTEVVVK
notes: also called anti AQP3 antibody SC-F8
binding result [21]: no binding | EC50 [2]: 0.01 µg/mL and ~0.06 nM | binding signal (plate reader) [4]: 3.92 | binding signal (plate reader) [5]: 1.77 | binding signal (plate reader) [6]: 3.94 | binding signal (plate reader) [7]: 3.91 | binding signal (plate reader) [8]: 3.81 | binding signal (plate reader) [9]: 3.97 | binding signal (plate reader) [10]: 1.56 | binding signal (plate reader) [11]: 3.86 | binding signal (plate reader) [12]: 3.99 | binding signal (plate reader) [13]: 0.06 | binding signal (plate reader) [14]: 0.071 | binding signal (plate reader) [15]: 3.92 | binding signal (plate reader) [16]: 3.92 | binding signal (plate reader) [17]: 4 | binding signal (plate reader) [18]: 3.91 | binding signal (plate reader) [19]: 2.99 | fold fluorescence intensity over no antibody [22]: > 2 fold | fold fluorescence intensity over no antibody [23]: ≥ 2 fold

B3: Antibody E (antibody, mouse IgG2a, kappa, V domains shown)
VH: EVKLLESGAELVRPGASVTLSCKASGYTFTDYEMHWVKQTPVHGLEWIGGIDPESGGTGYNQKFKGKAILTADKSSSTAYMELRSLTSEDSAVYFCTRSGYYGSPLLDYWGQGTTLTVSS
VL: QIVLSQSPAIMSASLGERVTMTCTASSSVSSSYLHWYQQKPGSSPKLWIYSTSNLASGVPARFSGSGSGTSYSLTISSMEAEDAATYYCHQYHRSPPTFGAGTKLEIKR
notes: also called anti AQP3 antibody E; Antiboy E
binding result [1]: binds | binding result [3]: binds | binding result [20]: binds | binding result [24]: binds
